This test relates to PCV2 in PK-15 cells. Kind of test: Progeny PCV2 virus production in PK-15 cells with IFN-gamma. It is filed as cell-based, Porcine circovirus 2. How it is done: The influence of IFN-gamma on the production of progeny virus in PCV2-infected cells was determined by inoculating PK-15 cells with the standard PCV2-stock. After the inoculation, culture medium was added supplemented with IFN-gamma (500 U/ml). At 0, 12, 24, 36, 48 and 72 hours post inoculation (hpi) the supernatant was collected. Subsequently the culture was washed once with 1 ml PBS. Both the supernatant and the washing fluid were centrifuged for 10 minutes at 15,000×g to pellet cells and debris. The centrifuged supernatant and washing fluids were combined and considered to contain the extracellular virus. Both pellets and cell cultures were freeze-thawed tree times and considered to contain the intracellular virus. Intra- and extracellular virus titres were determined by titration on PCV-negative PK-15 cells as described previously.

Data on 1 molecule can be found in patent US9119806B2, “Culturing circular ssDNA viruses for the production of vaccines” (priority 2007, dated 2015).

B1: IFN-gamma: Porcine interferon gamma purchased from R&D systems (protein, UniProt P17803 24-166, looked up)
Interferon gamma: QAPFFKEITILKDYFNASTSDVPNGGPLFLEILKNWKEESDKKIIQSQIVSFYFKFFEIFKDNQAIQRSMDVIKQDMFQRFLNGSSGKLNDFEKLIKIPVDNLQIQRKAISELIKVMNDLSPRSNLRKRKRSQTMFQGQRASK
In the case of B1, the “total PCV2 production higher compared to non-treated cells” value (500 U/ml after inoculation, 72 hpi) was determined as 1.3 log10 TCID50. The “extracellular and intracellular virus production (in words)” value (500 U/ml, compared to non-treated control cells) was “increased”.
